Data taken from PMC8648671.

Assays:
[1] = target: βPix-SH3 mutant-Myc (W43K)

Rac1 activity (Rac1-GTP by GST-PBD pull-down, against total Rac1) in HEK293T cells transfected with Flag-βPix and Dyn2-GFP, relative to non-transfected cells (Flag-βPix): 3 fold
Rac1 activity (Rac1-GTP by GST-PBD pull-down) in HEK293T cells transfected with the Flag-tagged SH3 mutant of βPix and Dyn2-GFP [1]: 50%
B1: Dyn2-GFP (natural protein)
chain: MGNRGMEELIPLVNKLQDAFSSIGQSCHLDLPQIAVVGGQSAGKSSVLENFVGRDFLPRGSGIVTRRPLILQLIFSKTEYAEFLHCKSKKFTDFDEVRQEIEAETDRVTGTNKGISPVPINLRVYSPHVLNLTLIDLPGITKVPVGDQPPDIEYQIKDMILQFISRESSLILAVTPANMDLANSDALKLAKEVDPQGLRTIGVITKLDLMDEGTDARDVLENKLLPLRRGYIGVVNRSQKDIEGRKDIRAALAAERKFFLSHPAYRHMADRMGTPHLQKTLNQQLTNHIRESLPTLRSKLQSQLLSLEKEVEEYKNFRPDDPTRKTKALLQMVQQFGVDFEKRIEGSGDQVDTLELSGGARINRIFHERFPFELVKMEFDEKDLRREISYAIKNIHGVRTGLFTPDLAFEAIVKKQVVKLKEPCLKCVDLVIQELISTVRQCTSKLSSYPRLREETERIVTTYIREREGRTKDQILLLIDIEQSYINTNHEDFIGFANAQQRSTQLNKKRAIPNQGEILVIRRGWLTINNISLMKGGSKEYWFVLTAESLSWYKDEEEKEKKYMLPLDNLKIRDVEKGFMSNKHVFAIFNTEQRNVYKDLRQIELACDSQEDVDSWKASFLRAGVYPEKDQAENEDGAQENTFSMDPQLERQVETIRNLVDSYVAIINKSIRDLMPKTIMHLMINNTKAFIHHELLAYLYSSADQSSLMEESAEQAQRRDDMLRMYHALKEALNIIGDISTSTVSTPVPPPVDDTWLQNTSSHSPTPQRRPVSSVHPPGRPPAVRGPTPGPPLIPMPVGATSSFSAPPIPSRPGPQNVFANNDPFSAPPQIPSRPARIPPGIPPGVPSRRAPAAPSRPTIIRPAEPSLLD
